Consider 34 sequences from a protein production outcome set (Wang et al. 2014).

The data set in a line: label from the status in PepcDB records.
Turning to “KLFPRLFGLYRHVADLYQKMKALHPIMNDTLNRQAERWGLGKIYLSEEEFCQSEEKEKIRMLQSDFYDRMWYRLDFRGKLGSAKSFQCYYFFFRHS”, the protein production result is listed as “failed”.

With “KLHYKQIVWVKLGNYRWWPAEICNPRSVPLNIQGLKHDLGDFPVFFFGSHDYYWVHQGRVFPYVEGDKSFAEGQTSINKTFKKALEEAAKRFQELKA”, the protein production result is given as “not failed”.

As for “KLKKKEYEQELKKLQVELVKLQEWVKHKGLKVVVLFEGRDAAGKGGVIKRITEKLNHRVCRVVALPAPTEKEKTQWYFQRYVAHLPSAGEIVLFDRSWYNRAGVEKVMGFCTPDEYEEFLRSCPEFERMLQRSGIILLKYWFSVSDEEQEKRFLGRINTPIKRWKFSPMDLESRHRWAEYSEAKDKMFAYTDTKNCPWWVVPSDSKQKARLNCISHLLSQIEYKALEYP”, the protein production entry is listed as “not failed”.

As to “KNKKVILFAPTFRGNGHRTAHYPFFKINFARLASYCEEHQATVLFKMHPFVRNKLNIPAIYSKYFLDISNYREVNDVLFITDILISDYSSLIYEFSVFKKPMLFYAFDLEDYIYTRDFYEPYETFVPGKIVKIFDELILALENNDFELEKVKPFLNKNFKYKDGKSSERLVKDLFNKFFQ”, the protein production entry is on record as “failed”.

For the sequence “KPREEKRTALSKVVIRRLPPGLTKEQLEEQLRPLPAHDYFEFFAADLSLYPHLYSRAYINFRNPDDILLFRDRFDGYIFLDSKGLEYPAVVEFAPFQ”, the protein production entry is “failed”.

“KQQKDGSWLMDALIPLNELKYKLGLTTIEGEESEGFQTLNGFLTWWLGRLPHAGELVDYEGWQFEVLNVKHHRIVQVKVSRETESETTTDTNDGDANP”: the protein production entry is “not failed”.

On to “KSVFPFSNVLKQTLLKRATVFLGVPAIYTAMSKAKIPWYFRWFNRIRLFISGGAPLAEQTILDFKAKFPRAKLLEGYGLSEASPVVAVNTPERQKARSVGIPLPGLEAKAVDEELVEVPRGEVGELIVRGGSVMRGYLNMPAATDETIVNGWLKTGDFVTIDEDGFIFIVDRKKDLIISKGQNVYPREIEEEIYKLDAVEAAAVIGVKDRYADEEIVAFVQLKEGMDLGENEIRRHLRTVLANFKIPKQIHFKDGLPRNATGKVLKRVLKEQFDGNK”, for which the protein production result is listed as “failed”.

Turning to “KVKIPYQKYKLDNGLTVILAPEGSDPLVHVDVTYHVGSAREEIGKSGFAHFFEHMMFQGSENVGDQEHFKIITEAGGTLNGTTNRDRTNYFETVPANQLEKMLWLESDRMGFLLDAVSQRKFEIQRSTVKNERAQRYDNRPYGLIWERMSEALYPEGHPYSWQTIGYVEDLERVDVNDLKAFFLRWYGPNNATITIGGDLDVEQTLAWVNKYFGSIPRGP”, the protein production entry was “failed”.

For “KVKWTHEEDEQLRALVRQFGQQDWKFLASHFPNRTDQQCQYRWLRVL”, the protein production result was “not failed”.

On to “LADGDFIDLDWHGPHQPHAPLVIVLHGLTGSSHSPYVKGLQQALQDRGWASVAVNWRGCSGEPNLLPRSYHSGASEDLAEIVSHLRAQRPLAPLYAVGYSLGGNVLLKYLGESGVASQLEAAAAVSVPFRLDHCADRIGQGFSKVYQAHFMREMLAYVQLKQRHFHARGQHEQLATLERLGQLTNLRTFWDFDGKVTAPLNGFRDAHDYYRRSSSHFFLGQNRTPTLIIHSSDDPFVSSHSLPTARELSPQTRFELHDRGGHVGFVDG”, for which the protein production result is recorded as “failed”.

With “LAMPPGNSHGLEVGSLAEVKENPPFYGVIRWIGQPPGLNEVLAGLELEDECAGCTDGTFRGTRYFTCALKKALFVKLKSCRPDSRFASLQP”, the protein production result was “not failed”.

Regarding “LANRIENVVSQERTRKKFESLVSDSPDGIVHLTTNGTILSVNPSMAGRLGADPDTLVGQQLSAVMDSEAANQRLEAGKSAVENGTATRSEDAVGGRHYHNQYIPVDSHRKSDTFQLVSRDIT”, the protein production entry is on record as “not failed”.

Consider “LAPGLHFIATPIGAARDITLRALDILRAADVLAAEDTRTLRHLMEIHGIPLGGRPLVAYHDHNGEAARPRLLRALAEGRSVAYASEAGTPLVADPGFQLGRAAIAAGHPVLAAPGPS”, for which the protein production entry is “failed”.

On to “LAPTAQKMSKNYGVLASILLSQAAYESNYGSSLLSVKYHNIYSLPARPGQEHIYLKDNVYSKGKWQYQKVDFAVFRDWSSSMSSYLEELRQGRWGESTYKEVAGTTSYKVAAEKLQAAGFNSDPDYTKHLISIIETYNLVKYDR”, for which the protein production entry is given as “failed”.

Turning to “LAYQPGKLLVRGDTPLFKIERLLGIDLDHIEAETLAGLIYETLKRVPEEEEQMEVEGLRIIIKKMKGPKIVLAKVLKLD”, the protein production entry was “not failed”.

As for “LDAVVQEKFSGRRWTIPAKVYARPLELFNGLKLSREDFLRELDALGYRREPSVSGPGTVSVAASAVELNTRGFQFYEGAEPAQRVRVRFNGNYVSGLSQANGKELAVARLEPLLIGGLYPAHHEDRILVKLDQVPTYLIDTLVAVEDRDFWNHHGVSLKSVARAVWVNTTAGQLRQGGSTLTQQLVKNFFLSNERSLSRKINEAMMAVLLELHYDKRDILESYLNEVFLGQDGQRAIHGFGLASQYFFSQPLAELKLDQVALLVGMVKGPSYFNPRRYPDRALARRNLVLDVLAEQGVATQQEVDAAKLRPLGVTRQGSMADSSYPAFLDLVKRQLRQDYRDEDLTEEGLRIFTSFDPILQEKAETSVNETLKRLSGRKGVDQVEAAMVVTNPETGEIQALIGSRDPRFAGFNRALDAVRPIGSLIKPAVYLTALERPSKYTLTTWVQDEPFAVKGQDGQVWRPQNYDRRSHGTIFLYQGLANSYNLSTAKLGLDVGVPNVLQTVARLGINRDWPAYPSMLLGAGSLSPMEVATMYQTIASGGFNTPLRGIRSVLTADGQPLKRYPFQVEQRFDSGAVYLVQNAMQRVMREGTGRSVYSQLPSSLTLAGKTGTSNDSRDSWFSGFGGDLQAVVWLGRDDNGKTPLTGATGALQVWASFMRKAHPQSLEMPMPENVVMAWVDAQTGQGSAADCPNAVQMPYIRGSEPAQGPGCGSQNPAGEVMDWV”, the protein production result is reported as “failed”.

As to “LEEHEQFNHKIVASAPVGISILRIRDGMIILSNELAHNYFRLLSHSDKQNILSIIAEKSSNIVDVVTNNHNHLQISFVNSRYQNEDVAICVLVDISARVKMERSLQNMATAAEQANQAKSMFLATVSHELRTPLYGIIGNL”, the protein production entry is listed as “failed”.

Turning to “LENDRTTFRIRNLDSGEIIWSGMGAVYPVYSPSFDHAADAFAFAFSSPADPPEIHLLRDAETKSSINSHLDGVSPYPAEIVEWKAKDGEDLYGILRLIDPKNPLIVYIHGGPTSFSYASFLDRTSIYLGYGFNVFAPNYRGSVGKGRRYAELNVGDLGGKDFDDVISGIEFLKNTGKIATDR”, the protein production entry is on record as “failed”.

For the sequence “LENQISFRKALSDSLPNPTYVVNWQGNVISHNSAFEHYFTADYYKNAMLPLENSDSPFKDVFSNAHEVTAETKENRTIYTQVFEIDNGIEKRCINHWHTLCNLPASDNAVYICGWQDITETRDLINALEVEKNKAIKATVAKSQFLATMSHEIRTPISSIMGFL”, the protein production result was “failed”.

On to “LEQVQESKAESTAPSSDAVVVSKTNTSSMPVAELRSLIDDLTTQMGTAARELKFELAGRLRDEIAELKKELRGMEEIGLA”, for which the protein production result is listed as “failed”.

As to “LERAKLVSIDRVIDDLSRNIDIEEVSQALAGQVIIDIRHPDAQEDQPLQVPGVEIQTLPFYALNSRFKALDDTRQYLLYCDKGVMSRLHAHHLLSEGHANVRVY”, the protein production result is reported as “failed”.

On to “LEYSNIPITDNNKVKLIKSGREKFEDLFEAIRGAKHHIHLEYFNFRNDSIANALFDLLGEKVKEGVKVRAMFDAFGNWSNNKPLKKRHLKAIREKGIEIVKFDPFKFPYINHAAHRDHRKIAVIDGKIGYTGGMNIADYYINGLPKIGTWRDMHIRIEGDAVNILQEIFLDIWNKTTKQNIVGEEYFPNHPERADSCNTVISIVDRTPKRNSRMLSHT”, for which the protein production entry is given as “failed”.

As for “LFQIVEQSFGRPLSPYEIETLNQWIDVDHHDLSVIQAALDEALSQNKLSFKYIDRILLNWKKNNVKTVDDSKK”, the protein production result is reported as “not failed”.

As to “LFYDSEQDKEQSNPYMVLDIDKLFHVRPVTQTDVYRADAKEIPRIFQILYANEGESKKEQEFPVEPVGEKSNYICHKGHEFIPTLYHFPTNCEACMKPLWHMFKPPPALECRRCHIKCHKDHMDKKEEIIAPCKVYYDISTAKNLLLLANSTEEQQKWVSRLV”, the protein production entry is given as “failed”.

For “LKMLRDMTGLPHNRKCFDCDQRGPTYVNMTVGSFVCTSCSGSLRGLNPPHRVKSISMTTFTQQEIEFLQKHGNEVCKQIWLGLFDDRSSAIPDFRDPQKVKEFLQEKYEKKRWYVPPEQAK”, the protein production entry is given as “not failed”.

For the sequence “LKPERVITKNSGASLIDLGDDVALLEFHSPNNSIGFDVVQMINKAVDEVEANYKGLVIGNQGKNFCVGANLMMILMEAQDDNFFEIDMVVRQFQQAMAKIRYSQKPVVSAPFAMTLGGGTEICLPTASIQASLETYMGLVEVGVGVIPGGGGNKELYLRHLERLPEGANIDLQSIANKTFETIAMAKVSTSAHEAMENGFLSERDGVVVNGDHLLYQAKQQVIHLHDAG”, the protein production result is given as “failed”.

Take “LKPLSIIYNGKSGFHASDKEGVYEQIMTLFTRYDFEIQVFELNEKITFDELMEQVLLRHLNLNTSEYKGVIVAAGGDGTLNAVASRLVDTPIPMGILPLGTFNYVARVLNIPLDLLAAAEVIADGTIRSVHVATINDRIYLNNASLG”: the protein production result was “failed”.

Take “LLPKYNILTEDQVQKIHENTMKILEEIGIEFEYEPALEVFRREGQKVEGKRVYLTREFVESKLKSAPAEFTLHARNPENNVVIGGDNIVFMPGYGAPFIYELDGSRRKTTLQDYENFAKLAGASKNMHLSGGTMAEPQDIPDGVRHLQMLYSSIKNSDKCFMGSAEGKERAEDSVEIAAILFGGKDVIKEKPVLVSLINSLTPLKYDERMLGALMAYAEAGQAVIIASLVMAGSTGPASLAGTLSLQNAEVLAGISLAQSINPGTPVIYGSTSALSDMRSGSLSIGSPECALFISASAQLARFYGVPSRSGGGLNDSKTVDAQAGYESMMTLMAANLTGVNFVLHTAGILQYFMAMSYEKFIMDDEIAGMLLHYMKGYTFDEDGMAFDVIEKVGPGGHFLTQKHTRKNHKREFYTPTLSDRSAYDTWAKEKLETKQRAHARWQQILANYVPPALDPEIDAKLQAFIAQRGKEVGEE”: the protein production entry was “not failed”.

For “LMLACMNMARKKTGALIAIQQGIDLTPFAHTGEVFRAEVNARLVENIFFKNSPLHDGAMVIADNSIIAAGCILPVAYNTDLNKDLGLRHRSALGLSQETDAKIIIISEERGRISFAYRGEIHQDITTDELQLLLED”, the protein production entry was “failed”.

For the sequence “LNIAQKGREGRKIGTAFVMGDVEEVMSRSSQLVINPYHGHKEADRDIKNPENWESVMEFAQIDGVFVLDENGIIIACGRYIEASAKDLVSKIKRGLGGRHIACASITKETKAIAVVVSESGGDITVYKDGVEVMHIPSLLF”, the protein production result is recorded as “failed”.

Consider “LNLPYDEHADAWTQVKKALAAGKRTHKPTLLVFGANWCTDCRALDKSLRNQKNTALIAKHFEVVKIDVGNFDRNLELSQAYGDPIQDGIPAVVVVNSDGKVRYTTKGGELANARKMSDQGIYDFFAKITE”, for which the protein production entry is recorded as “not failed”.

Take “LNSAPTPRDVVANAPAPVQAAVAGAQEYAAQAGLNTEELAVDALYNAIKVRLAGTGLGIPPQIEAFYQANRTNFNGFYMANRGAIDFIFSM”: the protein production entry was “not failed”.

On to “LPLCDSLIIWLQTFKTASPCQDVKQLTNGVTMAQVLHQIDVAWFSESWLSRIKDDVGDNWRIKASNLKKVLHGITSYYHEFLGQQISEELIPDLNQITECADPVELGRLLQLILGCAVNCEKKQEHIKNIMTLEESVQHVVMTAIQELMSK”, for which the protein production entry is given as “not failed”.

“LPSDVTEGKTVFIRNLSFDSEEEALGEVLQQFGDLKYVRVVLHPDTEHSKGCAFAQFMTQEAAQKCLAAASLEAEGGGLKLDGRQLKVDLAVTRDEAA”: the protein production entry was “not failed”.
